According to patent US20150104469A1 (EXTEND BIOSCIENCES, published 2015):

Biological target: GHS-R receptor
Assay: cell-based or functional assay

Sequence of GHS-R receptor (Q92847 whole entry): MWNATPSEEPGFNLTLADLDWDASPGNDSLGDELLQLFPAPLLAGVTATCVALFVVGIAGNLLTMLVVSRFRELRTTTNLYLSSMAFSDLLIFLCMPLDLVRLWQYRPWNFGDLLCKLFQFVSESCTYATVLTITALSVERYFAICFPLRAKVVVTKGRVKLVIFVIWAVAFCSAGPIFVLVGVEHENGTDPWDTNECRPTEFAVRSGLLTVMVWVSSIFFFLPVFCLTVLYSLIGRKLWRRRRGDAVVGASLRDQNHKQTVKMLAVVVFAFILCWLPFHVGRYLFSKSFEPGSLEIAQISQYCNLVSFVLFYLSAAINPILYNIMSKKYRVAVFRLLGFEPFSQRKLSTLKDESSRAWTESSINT

B1: Vitamin D3-PEG-maleimide carrier-conjugated ghrelin from Example 3 (peptide)
peptide: GSSFLSPEHQKAQQRKESKKPPAKLQPRC
modifications: n-octanoyl-Ser at position 3; Vitamin D3-PEG (2 kDa)-maleimide carrier coupled to the free thiol of the added C-terminal cysteine
Q: Which “EC50, calcium flux (FLIPR) % activation in GHS-R-expressing CHO-K1 cells” value does the source give for B1 here?
A: 85 nM
